Laboratory results reported in US20190225650A1, “PEPTIDOMIMETIC MACROCYCLES AND USE THEREOF IN REGULATING HIF1ALPHA” (AILERON THERAPEUTICS, INC., priority 2013, published 2019).
Bridge positions count the residues as written; N and C are the ends. Square brackets hold non-standard residues; d marks the D form. S5 = C=CCCC[C@](C)(N)C(=O)O; Nle = CCCC[C@H](N)C(=O)O

target: T1, His6-tagged p300 (AA 323-423) (UniProt Q09472 323-423); experiment: TR-FRET HIF1a/p300 displacement; grade = IC50 >700 nM
T1 construct: range 323-423; also called p300-CH; not shown: His6 tag
T1 sequence (Q09472 323-423 limits assumed): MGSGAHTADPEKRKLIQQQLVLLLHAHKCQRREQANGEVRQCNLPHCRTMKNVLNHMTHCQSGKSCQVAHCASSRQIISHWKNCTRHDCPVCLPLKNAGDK
Procedure: The ability of peptides to displace HIF1α c-terminal trans-activation domain from p300-CH was measured by a TR FRET assay. […] The complex was diluted to 300 nM final in complete assay media and competitor peptides were added. The complete assay media contained 150 mM NaCl (Sigma +S5150 or equivalent), 20 mM HEPES pH 7.4 (Boston Bioproducts, Ashland, Mass.; #BB-2076), 7.5 mM CHAPS (Thermo #28300 or equivalent), and 1 mM DTT. Protein and peptide were incubated at room temperature for 1 hour before the addition of anti-Flag-K and anti-6×HIS-D2 (CisBio, Bedford Mass.) HTRF reconstitution buffer (50 mM Phosphate pH 7, 0.8 Potassium Flouride, BSA 0.2%)¹ to a final concentration of 0.5 μM and 4 nM respectively. The reaction continued for an additional two hours at room temperature. The reaction was read on a TECAN F500 plate reader with settings recommended by CisBio. The ratio of donor to acceptor fluorescence was calculated. The resulting data was analyzed with Graphpad Prism 5.0. IC50 values were calculated for both proteins using the One Site Fit-LogIC50 equation and presented in the column “IC₅₀ (nM) (HIF1α_p300 Displacement+CHAPS)” of Table 6. ¹ Cisbio USA, Bedford, Mass.; 61HISDLB (lot 007A), 61FG2KLB (024A), HTRF Buffer (62RB3RDF)

Binder | IC50
Ac-FADEEVL[Nle][S5]LVI[S5][Nle]ALDRI-NH2 (staple 9-13; SMILES CCCC[C@H](NC(=O)[C@H](CC(C)C)NC(=O)[C@@H](NC(=O)[C@H](CCC(=O)O)NC(=O)[C@H](CCC(=O)O)NC(=O)[C@H](CC(=O)O)NC(=O)[C@H](C)NC(=O)[C@H](Cc1ccccc1)NC(C)=O)C(C)C)C(=O)N[C@@]1(C)CCCC=CCCC[C@@](C)(C(=O)N[C@@H](CCCC)C(=O)N[C@@H](C)C(=O)N[C@@H](CC(C)C)C(=O)N[C@@H](CC(=O)O)C(=O)N[C@@H](CCCNC(=N)N)C(=O)N[C@H](C(N)=O)[C@@H](C)CC)NC(=O)[C@H]([C@@H](C)CC)NC(=O)[C@H](C(C)C)NC(=O)[C@H](CC(C)C)NC1=O) [SP-10] | > 700 nM
Ac-FIDEEVLA[S5]LVI[S5]AALDRI-NH2 (staple 9-13; SMILES CC[C@H](C)[C@H](NC(=O)[C@H](CCCNC(=N)N)NC(=O)[C@H](CC(=O)O)NC(=O)[C@H](CC(C)C)NC(=O)[C@H](C)NC(=O)[C@H](C)NC(=O)[C@]1(C)CCCC=CCCC[C@](C)(NC(=O)[C@H](C)NC(=O)[C@H](CC(C)C)NC(=O)[C@@H](NC(=O)[C@H](CCC(=O)O)NC(=O)[C@H](CCC(=O)O)NC(=O)[C@H](CC(=O)O)NC(=O)[C@@H](NC(=O)[C@H](Cc2ccccc2)NC(C)=O)[C@@H](C)CC)C(C)C)C(=O)N[C@@H](CC(C)C)C(=O)N[C@@H](C(C)C)C(=O)N[C@@H]([C@@H](C)CC)C(=O)N1)C(N)=O) [SP-26] | > 700 nM
Ac-EIDEEVL[Nle][S5]LVI[S5][Nle]ALDRI-NH2 (staple 9-13; SMILES CCCC[C@H](NC(=O)[C@H](CC(C)C)NC(=O)[C@@H](NC(=O)[C@H](CCC(=O)O)NC(=O)[C@H](CCC(=O)O)NC(=O)[C@H](CC(=O)O)NC(=O)[C@@H](NC(=O)[C@H](CCC(=O)O)NC(C)=O)[C@@H](C)CC)C(C)C)C(=O)N[C@@]1(C)CCCC=CCCC[C@@](C)(C(=O)N[C@@H](CCCC)C(=O)N[C@@H](C)C(=O)N[C@@H](CC(C)C)C(=O)N[C@@H](CC(=O)O)C(=O)N[C@@H](CCCNC(=N)N)C(=O)N[C@H](C(N)=O)[C@@H](C)CC)NC(=O)[C@H]([C@@H](C)CC)NC(=O)[C@H](C(C)C)NC(=O)[C@H](CC(C)C)NC1=O) [SP-30] | > 700 nM
FIDEEVLLALVIAAALDRI (not fully specified; Ac-FIDEEVL-Nle-$-LVI-$-AALDRI-NH2) [SP-20] | > 700 nM
Ac-FIDEEVA[Nle][S5]LVI[S5][Nle]ALDRI-NH2 (staple 9-13; SMILES CCCC[C@H](NC(=O)[C@H](C)NC(=O)[C@@H](NC(=O)[C@H](CCC(=O)O)NC(=O)[C@H](CCC(=O)O)NC(=O)[C@H](CC(=O)O)NC(=O)[C@@H](NC(=O)[C@H](Cc1ccccc1)NC(C)=O)[C@@H](C)CC)C(C)C)C(=O)N[C@@]1(C)CCCC=CCCC[C@@](C)(C(=O)N[C@@H](CCCC)C(=O)N[C@@H](C)C(=O)N[C@@H](CC(C)C)C(=O)N[C@@H](CC(=O)O)C(=O)N[C@@H](CCCNC(=N)N)C(=O)N[C@H](C(N)=O)[C@@H](C)CC)NC(=O)[C@H]([C@@H](C)CC)NC(=O)[C@H](C(C)C)NC(=O)[C@H](CC(C)C)NC1=O) [SP-15] | > 700 nM
FIDEEVLLALVIALALARI (not fully specified; Ac-FIDEEVL-Nle-$-LVI-$-Nle-ALARI-NH2) [SP-23] | > 700 nM
Ac-FIDEEAL[Nle][S5]LVI[S5][Nle]ALDRI-NH2 (staple 9-13; SMILES CCCC[C@H](NC(=O)[C@H](CC(C)C)NC(=O)[C@H](C)NC(=O)[C@H](CCC(=O)O)NC(=O)[C@H](CCC(=O)O)NC(=O)[C@H](CC(=O)O)NC(=O)[C@@H](NC(=O)[C@H](Cc1ccccc1)NC(C)=O)[C@@H](C)CC)C(=O)N[C@@]1(C)CCCC=CCCC[C@@](C)(C(=O)N[C@@H](CCCC)C(=O)N[C@@H](C)C(=O)N[C@@H](CC(C)C)C(=O)N[C@@H](CC(=O)O)C(=O)N[C@@H](CCCNC(=N)N)C(=O)N[C@H](C(N)=O)[C@@H](C)CC)NC(=O)[C@H]([C@@H](C)CC)NC(=O)[C@H](C(C)C)NC(=O)[C@H](CC(C)C)NC1=O) [SP-14] | > 700 nM
Ac-FIAEEVL[Nle][S5]LVI[S5][Nle]ALDRI-NH2 (staple 9-13; SMILES CCCC[C@H](NC(=O)[C@H](CC(C)C)NC(=O)[C@@H](NC(=O)[C@H](CCC(=O)O)NC(=O)[C@H](CCC(=O)O)NC(=O)[C@H](C)NC(=O)[C@@H](NC(=O)[C@H](Cc1ccccc1)NC(C)=O)[C@@H](C)CC)C(C)C)C(=O)N[C@@]1(C)CCCC=CCCC[C@@](C)(C(=O)N[C@@H](CCCC)C(=O)N[C@@H](C)C(=O)N[C@@H](CC(C)C)C(=O)N[C@@H](CC(=O)O)C(=O)N[C@@H](CCCNC(=N)N)C(=O)N[C@H](C(N)=O)[C@@H](C)CC)NC(=O)[C@H]([C@@H](C)CC)NC(=O)[C@H](C(C)C)NC(=O)[C@H](CC(C)C)NC1=O) [SP-11] | > 700 nM
Ac-FIDAEVL[Nle][S5]LVI[S5][Nle]ALDRI-NH2 (staple 9-13; SMILES CCCC[C@H](NC(=O)[C@H](CC(C)C)NC(=O)[C@@H](NC(=O)[C@H](CCC(=O)O)NC(=O)[C@H](C)NC(=O)[C@H](CC(=O)O)NC(=O)[C@@H](NC(=O)[C@H](Cc1ccccc1)NC(C)=O)[C@@H](C)CC)C(C)C)C(=O)N[C@@]1(C)CCCC=CCCC[C@@](C)(C(=O)N[C@@H](CCCC)C(=O)N[C@@H](C)C(=O)N[C@@H](CC(C)C)C(=O)N[C@@H](CC(=O)O)C(=O)N[C@@H](CCCNC(=N)N)C(=O)N[C@H](C(N)=O)[C@@H](C)CC)NC(=O)[C@H]([C@@H](C)CC)NC(=O)[C@H](C(C)C)NC(=O)[C@H](CC(C)C)NC1=O) [SP-12] | > 700 nM
Ac-FIDEEVLA[S5]LVI[S5][Nle]ALDRI-NH2 (staple 9-13; SMILES CCCC[C@H](NC(=O)[C@]1(C)CCCC=CCCC[C@](C)(NC(=O)[C@H](C)NC(=O)[C@H](CC(C)C)NC(=O)[C@@H](NC(=O)[C@H](CCC(=O)O)NC(=O)[C@H](CCC(=O)O)NC(=O)[C@H](CC(=O)O)NC(=O)[C@@H](NC(=O)[C@H](Cc2ccccc2)NC(C)=O)[C@@H](C)CC)C(C)C)C(=O)N[C@@H](CC(C)C)C(=O)N[C@@H](C(C)C)C(=O)N[C@@H]([C@@H](C)CC)C(=O)N1)C(=O)N[C@@H](C)C(=O)N[C@@H](CC(C)C)C(=O)N[C@@H](CC(=O)O)C(=O)N[C@@H](CCCNC(=N)N)C(=O)N[C@H](C(N)=O)[C@@H](C)CC) [SP-16] | > 700 nM
Ac-FEDEEVL[Nle][S5]LVI[S5][Nle]ALDRI-NH2 (staple 9-13; SMILES CCCC[C@H](NC(=O)[C@H](CC(C)C)NC(=O)[C@@H](NC(=O)[C@H](CCC(=O)O)NC(=O)[C@H](CCC(=O)O)NC(=O)[C@H](CC(=O)O)NC(=O)[C@H](CCC(=O)O)NC(=O)[C@H](Cc1ccccc1)NC(C)=O)C(C)C)C(=O)N[C@@]1(C)CCCC=CCCC[C@@](C)(C(=O)N[C@@H](CCCC)C(=O)N[C@@H](C)C(=O)N[C@@H](CC(C)C)C(=O)N[C@@H](CC(=O)O)C(=O)N[C@@H](CCCNC(=N)N)C(=O)N[C@H](C(N)=O)[C@@H](C)CC)NC(=O)[C@H]([C@@H](C)CC)NC(=O)[C@H](C(C)C)NC(=O)[C@H](CC(C)C)NC1=O) [SP-31] | > 700 nM
